The record followed here is publication doi:10.1101/2021.01.08.425872.

Assay [1] deals with taxol-stabilized microtubules (porcine brain tubulin) (porcine) (UniProt P02550). The assay can be described thus: co-sedimentation.
For assay [2] the target is unchanged. The assay can be described thus: co-sedimentation. This is another data set of the same source.

Like-named read-outs stand apart in the source and are kept apart here.

In assay [1], “ICR2-His6 (from UniProt Q9ZQC5 56-583) (natural protein)” came in with a stoichiometry N (mol per mol of tubulin) of 0.85.

B1: ICR1-His6 (natural protein)
chain: MPRPRVSELSQRQAPRLRSSSSTSDSNHSNRLITTDQSFKPGVDRKSPRSGGPNSDPLGQKKLGGRISDLESQLGQAQEELRLLKEQLANAEAVKKQAQDELHKKSKKPNPLARVEESATEAERIDRDEIPGDVQKETDVFEVPVEKIAVEEEELRSGNDEAEKLVAKEDEIKMLKARLYDMEKEHESLGKENESLKNQLSDSASEISNVKANEDEMVSKVSRIGEELEESRAKTAHLKEKLESMEEAKDALEAEMKKLRVQTEQWRKAADAAAAVLSGEFEMNGRDRSGSTEKYYAGGFFDPSAGFMDPPGMADDYDDGLGSGKRKSSGMKMFGELWRKKGQK
With B1, the stoichiometry N (mol per mol of tubulin) stood at 0.4 in assay [1] and 0.35 in assay [2].
